Results from article PMC4773404, “Activation of a synapse weakening pathway by human Val66 but not Met66 pro-brain-derived neurotrophic factor (proBDNF)” (Pharmacological Research, 2016).

What was measured:
Assay in all cases: SPR; Biacore T200; receptor domains amine-coupled to CM5-S Series chips; analytes 0-20 nM flowed over; 10 mM HEPES, 150 mM NaCl, 3 mM EDTA, 0.05% surfactant P20, pH 7.4; double-referenced; 1:1 Langmuir fit
Settings in all cases: both partners purified
[1] = target: T1, human proBDNF Val66, furin cleavage-resistant (FCR) (human)
T1 construct: furin site 127RR128 changed to AA; non-glycosylated; Cloned in pET 24a(+); also called proBDNF FCR Val66
T1 sequence (P23560 whole entry, looked up): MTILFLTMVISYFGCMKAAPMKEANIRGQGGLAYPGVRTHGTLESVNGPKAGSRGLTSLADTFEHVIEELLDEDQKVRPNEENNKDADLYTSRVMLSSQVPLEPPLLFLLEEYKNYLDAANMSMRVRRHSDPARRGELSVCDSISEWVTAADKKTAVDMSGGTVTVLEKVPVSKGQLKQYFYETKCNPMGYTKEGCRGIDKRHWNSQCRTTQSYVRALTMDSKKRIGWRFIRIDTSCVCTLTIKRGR

[2] = target: T2, human proBDNF Met66, furin cleavage-resistant (FCR) (human)
T2 construct: furin site 127RR128 changed to AA; non-glycosylated; Cloned in pET 24a(+); also called proBDNF FCR Met66
T2 sequence (P23560 whole entry, looked up): T1 sequence (P23560 whole entry, looked up)

[3] = target: T3, brain-derived neurotrophic factor (BDNF)
T3 construct: mature BDNF (~14 kDa), the cut product of proBDNF; used as control analyte in SPR; also called mature BDNF
T3 sequence (P23560 19-247, species assumed, looked up): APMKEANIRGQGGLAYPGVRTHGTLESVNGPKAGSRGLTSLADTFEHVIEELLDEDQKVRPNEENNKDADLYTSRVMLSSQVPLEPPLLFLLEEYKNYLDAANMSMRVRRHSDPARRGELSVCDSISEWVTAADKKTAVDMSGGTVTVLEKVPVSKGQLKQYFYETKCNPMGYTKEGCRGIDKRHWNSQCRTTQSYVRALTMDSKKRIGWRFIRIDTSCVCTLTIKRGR

B1: TrkB immunoglobulin-like domain 2 (TrkBIg2) (domain or fragment)
chain: APTITFLESPTSDHHWCIPFTVKGNPKPALQWFYNGAILNESKYICTKIHVTNHTEYHGCLQLDNPTHMNNGDYTLIAKNEYGKDEKQISAHFMGWPG
With B1 the Kd [1] was 2.32 nM, the koff [1] was 0.00367 s⁻¹ and the kon [1] was 1.61e+06 M⁻¹ s⁻¹. It also gave a Kd [2] of 2.03 nM, a koff [2] of 0.00392 s⁻¹ and a kon [2] of 1.99e+06 M⁻¹ s⁻¹. The Kd [3] was 0.58 nM, the koff [3] was 0.00232 s⁻¹ and the kon [3] was 4.57e+06 M⁻¹ s⁻¹.
